The results in this text go back to patent US12685781B2, “Anti-HER3 antibody-drug conjugate” (DAIICHI SANKYO COMPANY, LIMITED, priority 2014, dated 2026).

For the assay, the target named is HER3 (Homo sapiens, UniProt P21860). Put plainly: Reduction in expression of HER3 on cell surface (internalization), flow cytometry in HCC1569. Format: cell-based. The following applies: HCC1569, 10 ug/mL, 37 C, 1 hr. Set-up: host or cells: HCC1569 (human breast cancer cell line). On the procedure: HER3 internalization by U1-59 and each antibody-drug conjugate was evaluated by flow cytometry. 70,000 living cells of HCC1569 (from ATCC) were suspended in 0.5 mL of RPMI1640 (Invitrogen Corp., #31870-025) (containing 10% FBS (Invitrogen Corp., #10270-106 or PAN Biotech GmbH, #1505-P131304) and 2 mM glutamine (Invitrogen Corp., #25030-024)) and inoculated to each well of a 24-well plate. The cells were cultured for 4 days, and the medium was replaced with 0.5 mL of a fresh medium before the start of the internalization test. 5 ug of the antibody or each antibody-drug conjugate was added to 0.5 mL in each well of the 24-well plate such that the final concentration was 10 ug/mL. The cells were cultured for 1 hour at 37 C in the presence of the antibody or the antibody-drug conjugate. […]
For flow cytometry analysis, the cells were washed once with PBS and dissociated from the plate using 5 mM EDTA (100 uL/well) dissolved in ACCUTASE® SOLUTION (Millipore Corp., SCR005) or PBS. […] The fluorescence signals of living cells were measured using Accuri C6 Flow cytometer. […]
In order to quantify HER3-specific signals, values of cells stained with only the secondary antibody or 7-AAD were subtracted from FL-2 values of cells stained with the primary antibody and the secondary antibody, and further 7-AAD. […]

Turning to “U1-59: anti-HER3 human antibody; heavy and light chain variable regions SEQ ID NOs: 70 and 72; produced per WO 2007/077028”, the “reduction in HER3 expression on cell surface” value is reported as “about 50%”.
